Ends that are not written are not given here. * marks the point of attachment. Biotin = O=C1N[C@H]2[C@H](CS[C@H]2CCCCC(=O)*)N1
T1: synthetic MUC1 epitope peptide APDTRPAPG (synthetic; human MUC1 VNTR sequence)
T1 construct: also called MUC1 peptide; source: synthetic peptide, bought: GenScript
T1 chain: APDTRPAPG

T2: N-terminally biotinylated synthetic MUC1 peptide biotin-GGS-APDTRPAPG (synthetic; human MUC1 VNTR sequence)
T2 construct: short peptide linker for immobilization to the SPR substrate; occurs in every repeat; also called biotinylated MUC1 peptide; surface-immobilized MUC1 peptide; source: synthetic peptide, bought: GenScript
T2 chain: Biotin-GGSAPDTRPAPG

B1: hybridoma-derived 139H2 IgG (antibody, V domains shown)
VH: QVQLQQSGAELVKPGASVKLSCKASGYTFTNYYMYWVLQRPGQGLEWIGEINPSNGGTTFNEKFKNKATLTVDKSSSTAYMQLNSLTSEDSAVYYCTRSRYGNYVNYGMDYWGQGTSVTVSS
VL: DIVMSQSPSSLAVSVGEKVTMSCKSSQSLLYSNTQKNYLAWYQQKPGQSPKLLIYWASTRESGVPDRFTGSGSGTDFTLTISSVKAENLAVYYCQQYYRYPPTFGGGTKLELK
notes: as the heavy-chain variable domain of m1 (IGHV1-53); as the light-chain variable domain of m1 (IGKV8-30); mouse kappa light-chain constant region; Mouse IgG1, kappa; also called original hybridoma-derived 139H2; 139H2 WT; source: hybridoma culture supernatant (gift, NKI), purified (Protein G Sepharose); copies: 2 + 2
B2: recombinant 139H2 Fab fragment (Fab, V domains shown)
VH: B1 VH
VL: B1 VL
notes: as the heavy-chain variable domain of m1 (IGHV1-53); mouse Ig gamma-1 (IGHG1) Fab constant region; as the light-chain variable domain of m1 (IGKV8-30); mouse kappa light-chain constant region, as in m1; also called monovalent Fab fragment; anti-MUC1 Fab; source: HEK293 cells (ImmunoPrecise Antibodies), culture supernatant, purified (HisTrap Excel, Superdex 200 SEC)
B3: recombinant (reverse-engineered) 139H2 IgG (antibody, V domains shown)
VH: B1 VH
VL: B1 VL
notes: also in PDB 8P6I; standard mouse Ig gamma-1 (IGHG1) constant region, linker and Fc region, UniProt P01868.1; mouse kappa light-chain constant region (kappa light-chain backbone); Mouse IgG1, kappa; also called synthetic recombinant 139H2; recombinant 139H2; source: HEK293 cells (ImmunoPrecise Antibodies), culture supernatant, purified (HisTrap Excel); copies: 2 + 2

Key:
Details in all cases: both partners purified
[1] = biological target: T3, MUC1 reporter construct, Tn glycans (Homo sapiens (by repeat sequence), UniProt P15941, O-glycans of Tn structure; 5 O-glycosylation sites); assay: far-Western, overlay or dot blot; immunoblot of MUC1 reporter constructs (10 ng per well, boiled in Laemmli buffer, 10% SDS gel, PVDF); 139H2 antibodies 1:1,000 in TSMT with 1% BSA, 1 h at RT; band intensities compared with a His-tag blot
T3 construct: also called MUC1 Tn fragment; MUC1-Tn; source: engineered HEK293 cells, gift from Christian Büll (Copenhagen Center for Glycomics), in PBS

[2] = biological target: T4, MUC1 reporter construct, WT Core 2/ST glycans (Homo sapiens (by repeat sequence), UniProt P15941, O-glycans of WT Core 2/ST structure; 5 O-glycosylation sites); assay: as above
T4 construct: also called MUC1 WT fragment; MUC1-WT; source: engineered HEK293 cells, gift from Christian Büll (Copenhagen Center for Glycomics), in PBS

[3] = biological target: T5, MUC1 reporter construct, DiST glycans (Homo sapiens (by repeat sequence), UniProt P15941, O-glycans of DiST structure; 5 O-glycosylation sites); assay: as above
T5 construct: also called MUC1 DiST fragment; MUC1-DiST; source: engineered HEK293 cells, gift from Christian Büll (Copenhagen Center for Glycomics), in PBS

[4] = biological target: T6, MUC1 reporter construct, STn glycans (Homo sapiens (by repeat sequence), UniProt P15941, O-glycans of STn structure; 5 O-glycosylation sites); assay: as above
T6 construct: also called MUC1 STn fragment; MUC1-STn; source: engineered HEK293 cells, gift from Christian Büll (Copenhagen Center for Glycomics), in PBS

[5] = biological target: T1, synthetic MUC1 epitope peptide APDTRPAPG; assay: crystal structure; Fab and peptide mixed 1:2.5, 3.8 mg/ml in 50 mM Tris pH 8.0, 150 mM NaCl; sitting drop at 20°C; 2.5 Å
[6] = biological target: T2, N-terminally biotinylated synthetic …; assay: SPR; biotinylated peptide immobilised on a streptavidin chip (P-Strep), IBIS-MX96; 150 mM NaCl, 25 mM Hepes, 0.005% Tween-20; Fab as analyte, 10 twofold dilutions from 7.88 uM, kinetic titration without regeneration, 6-min association; equilibrium data fitted to a one-site (Langmuir) model

T4 sequence (P15941 whole entry, looked up, the tested form may be a part): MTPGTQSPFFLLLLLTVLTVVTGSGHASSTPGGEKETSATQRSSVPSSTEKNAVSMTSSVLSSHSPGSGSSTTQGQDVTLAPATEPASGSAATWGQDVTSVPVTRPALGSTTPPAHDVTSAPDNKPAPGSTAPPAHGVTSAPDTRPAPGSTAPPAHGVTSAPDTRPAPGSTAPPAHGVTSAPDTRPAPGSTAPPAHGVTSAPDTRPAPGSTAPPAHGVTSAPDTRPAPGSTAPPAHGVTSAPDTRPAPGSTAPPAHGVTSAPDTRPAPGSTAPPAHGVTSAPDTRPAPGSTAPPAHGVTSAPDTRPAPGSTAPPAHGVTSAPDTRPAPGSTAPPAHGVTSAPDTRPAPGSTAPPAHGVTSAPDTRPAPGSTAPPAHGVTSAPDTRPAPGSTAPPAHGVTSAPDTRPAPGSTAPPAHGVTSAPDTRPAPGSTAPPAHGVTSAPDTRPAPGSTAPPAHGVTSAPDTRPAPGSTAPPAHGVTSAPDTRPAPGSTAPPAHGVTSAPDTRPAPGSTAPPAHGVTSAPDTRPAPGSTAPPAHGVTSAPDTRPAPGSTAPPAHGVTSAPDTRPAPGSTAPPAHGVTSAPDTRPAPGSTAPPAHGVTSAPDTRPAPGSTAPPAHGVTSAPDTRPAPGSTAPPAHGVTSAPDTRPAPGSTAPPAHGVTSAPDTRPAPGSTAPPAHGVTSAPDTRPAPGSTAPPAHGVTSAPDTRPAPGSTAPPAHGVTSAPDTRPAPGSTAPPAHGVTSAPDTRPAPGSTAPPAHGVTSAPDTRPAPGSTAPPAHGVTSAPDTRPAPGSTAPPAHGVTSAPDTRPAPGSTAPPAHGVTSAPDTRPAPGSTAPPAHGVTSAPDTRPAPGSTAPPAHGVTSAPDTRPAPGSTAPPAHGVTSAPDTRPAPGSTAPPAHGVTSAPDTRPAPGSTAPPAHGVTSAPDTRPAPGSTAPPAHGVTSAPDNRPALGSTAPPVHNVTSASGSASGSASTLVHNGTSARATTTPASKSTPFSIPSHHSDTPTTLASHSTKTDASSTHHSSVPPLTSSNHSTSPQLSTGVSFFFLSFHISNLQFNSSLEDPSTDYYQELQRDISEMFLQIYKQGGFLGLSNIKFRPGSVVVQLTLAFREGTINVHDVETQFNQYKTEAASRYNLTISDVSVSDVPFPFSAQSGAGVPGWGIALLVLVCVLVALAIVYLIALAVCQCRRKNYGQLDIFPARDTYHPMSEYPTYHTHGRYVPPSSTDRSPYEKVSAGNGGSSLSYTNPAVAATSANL
T5 sequence (P15941 whole entry, looked up, the tested form may be a part): as above
T6 sequence (P15941 whole entry, looked up, the tested form may be a part): as above
T3 sequence (P15941 whole entry, looked up, the tested form may be a part): as above

Binder	binding result [1]	binding result [2]	binding result [3]	binding result [4]	binding result [5]	Kd [6]
B1	binds	binds	binds	binds	–	–
B2	–	–	–	–	binds	4.5 µM
B3	binds	binds	binds	binds	–	–
